Test results: patent US20090252748A1 (Biogen, published 2009)
Numbering of substitutions follows the chain as printed. Like-named read-outs stand apart in the source and are kept apart here.

T1: human Sp35 protein (ELISA, Western, KD; form not stated) (human, UniProt Q96FE5 40-538, limits assumed)
T1 construct: also called huSp35; hLINGO-1
T1 sequence: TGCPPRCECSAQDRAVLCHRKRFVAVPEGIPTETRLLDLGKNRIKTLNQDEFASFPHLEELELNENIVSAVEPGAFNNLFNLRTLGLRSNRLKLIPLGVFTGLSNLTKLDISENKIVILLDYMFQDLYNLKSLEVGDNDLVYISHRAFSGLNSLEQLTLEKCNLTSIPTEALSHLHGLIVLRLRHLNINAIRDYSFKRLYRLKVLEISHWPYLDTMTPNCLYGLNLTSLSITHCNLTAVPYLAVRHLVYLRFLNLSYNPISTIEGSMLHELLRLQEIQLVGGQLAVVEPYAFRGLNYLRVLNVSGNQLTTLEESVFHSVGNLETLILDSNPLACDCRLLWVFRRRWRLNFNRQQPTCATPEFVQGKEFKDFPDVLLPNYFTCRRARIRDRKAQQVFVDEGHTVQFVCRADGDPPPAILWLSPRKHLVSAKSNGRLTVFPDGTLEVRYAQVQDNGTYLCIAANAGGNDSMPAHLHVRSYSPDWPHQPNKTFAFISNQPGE

T2: full-length human Sp35 with an N-terminal HA tag (lysate of transfected COS-1 cells) (human, UniProt Q96FE5 40-620)
T2 construct: used here for all IP columns headed huSp35 / hLINGO-1; also called huSp35 (IP); hLINGO-1 (IP)
T2 sequence: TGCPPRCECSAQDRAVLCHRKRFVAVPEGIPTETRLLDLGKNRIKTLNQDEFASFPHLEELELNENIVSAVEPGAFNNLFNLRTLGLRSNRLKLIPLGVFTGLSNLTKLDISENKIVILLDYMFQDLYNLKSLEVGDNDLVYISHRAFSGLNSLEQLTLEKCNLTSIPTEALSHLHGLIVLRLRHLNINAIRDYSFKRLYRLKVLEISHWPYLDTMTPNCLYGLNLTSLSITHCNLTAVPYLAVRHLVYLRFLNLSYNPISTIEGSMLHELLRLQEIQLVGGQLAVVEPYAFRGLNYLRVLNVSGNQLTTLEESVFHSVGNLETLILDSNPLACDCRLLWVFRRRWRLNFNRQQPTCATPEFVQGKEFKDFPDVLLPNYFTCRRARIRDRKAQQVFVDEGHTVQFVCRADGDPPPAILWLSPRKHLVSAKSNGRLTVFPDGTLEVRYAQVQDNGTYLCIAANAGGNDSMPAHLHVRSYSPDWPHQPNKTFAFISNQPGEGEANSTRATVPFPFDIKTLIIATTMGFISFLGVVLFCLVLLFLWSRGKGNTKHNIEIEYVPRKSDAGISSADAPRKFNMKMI

T3: mouse Sp35 protein (ELISA, Western, KD; form not stated) (mouse, UniProt Q9D1T0 34-532, limits assumed)
T3 construct: also called mSp35; mLINGO1
T3 sequence (looked up): T1 sequence with S261G, V315A, R386H

T4: human Sp35 protein expressed on transfected cells (human, UniProt Q96FE5 40-620)
T4 construct: also called huSp35; hLINGO-1
T4 sequence: T2 sequence

T5: Sp35-Fc fusion protein (human Sp35 residues 1-532 fused to hinge and Fc of human IgG1) (human, UniProt Q96FE5 40-538)
T5 construct: also called LINGO-1-Ig; LINGO-1-Fc; not shown: hinge and Fc region of human IgG1
T5 sequence: T1 sequence

T6: Sp35 fragment 34-532 (ELISA) (human, UniProt Q96FE5 40-538)
T6 sequence: T1 sequence

B1: 79-G02 (Dli32) Fab (Fab, V domains shown)
VH: EVQLLESGGGLVQPGGSLRLSCAASGFTFSAYMMQWVRQAPGKGLEWVSSISPSGGNTKYADSVKGRFTISRDNSKNTLYLQMNSLRAEDTAVYYCARGDYGYWFDPWGQGTLVTVSS
VL: DIQMTQSPDSLSASVGDRVTITCQASQDISYYLNWYQQKPGMAPKLLIYDAFILEGGAPSRFSGSGSGTDFSFTISNLQPEDIATYFCQQSDQLPVTFGQGTKVEIR
notes: human
B2: 35-E04 (Li03) Fab (Fab, V domains shown)
VH: EVQLLESGGGLVQPGGSLRLSCAASGFTFSQYPMEWVRQAPGKGLEWVSGIYPSGGSTVYADSVKGRFTISRDNSKNTLYLQMNSLRAEDTAVYYCARAGQWLGDFDYWGQGTLVTVSS
VL: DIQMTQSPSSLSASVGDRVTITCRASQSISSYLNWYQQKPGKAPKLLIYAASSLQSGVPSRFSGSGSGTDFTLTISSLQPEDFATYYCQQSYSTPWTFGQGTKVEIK
notes: human, kappa; also called Dli03
B3: 1A7 monoclonal antibody (antibody, mouse IgG1, V domains shown)
VH: QVQLVQSGPELKKPGETVKISCKASGYTFTNYGMNWVKQAPGKGLKWMGWINTDTGEPTYTEDFQGRFAFSLETSASTVYLQFNNLKNEDTATYFCAREGVHFDYWGQGTTVTVSS
VL: QIVLTQSPAIMSASPGEKVTMTCSASSSVSYMHWYQQKSGTSPKRWIYDTSKLASGVPARFSGSGSGTSYSLTISSMEAEDAATYYCQQWSSNPFTFGSGTKLEIK
notes: murine IgG1/kappa; also called P1A7; 1A7 mAb
B4: 30-B01 (Li11) Fab (Fab, V domains shown)
VH: EVQLLESGGGLVQPGGSLRLSCAASGFTFSSYAMYWVRQAPGKGLEWVSSISTSGGYTGYADSVKGRFTISRDNSKNTLYLQMNSLRAEDTAVYYCARDTSDNDYYYMDVWGKGTTVTVSS
VL: DIQMTQSPSSVSAPIGDRVTITCRASQEIANYLAWYQQKPGKAPKLLIYDTYTLQTDVPPRFSGSGSGTDFTLTISSLQPEDTATYFCQQADIFPLSFGGGTKVEIK
notes: human, kappa; also called Dli11; Li011
B5: 80-D02 (Dli34) Fab (Fab, V domains shown)
VH: EVQLLESGGGLVQPGGSLRLSCAASGFTFSNYEMYWVRQAPGKGLEWVSGIYSSGGITVYADSVKGRFTISRDNSKNTLYLQMNSLRAEDTAVYYCARAAILDWYFDLWGRGTLVTVSS
VL: DIQMTQSPSSLSASVGDRVTITCHASQDISNYLSWYQQKPGKAPKLLIYDAFNLETGVPSRFSGSGSGTDFTFTISSLQPEDFATYYCQHYDNLPFTFGPGTRVAIR
notes: human
B6: 3P1D10.2C3 (antibody, mouse IgG1, V domains shown)
VH: QVQLQQSGAELARPGASVKLSCRASGYTFTSSWTQWVKQRPGQGLEWIGAIYPGDGDTRYTQKFKGKATLTADKSSSTAYMQLSSLASEDSAVYYCARHNSYGMDYWGQGTSVTVSS
VL: DIVMTQSPSSLTVTAGEKVTMSCKSSQSLLNSGNQKNYLTWYQQKPGQPPKLLIYWASTRESGVPDRFTGSGSGTDFTLTINSVQAEDLAVYYCQNDYSYPLFTFGSGTKLEIR
notes: murine IgG1
B7: 3P1E11.3B7 (antibody, mouse IgG1, V domains shown)
VH: B6 VH
VL: B6 VL with N37S
notes: murine IgG1
B8: 28-D02 (Li10) Fab (Fab, V domains shown)
VH: EVQLLESGGGLVQPGGSLRLSCAASGFTFSTYPMVWVRQAPGKGLEWVSWIGPSGGVTAYADSVKGRFTISRDNSKNTLYLQMNSLRAEDTAVYYCARPYSSGWWDFDLWGRGTLVTVSS
VL: DIQMTQSPSSMSASVGDTVTITCRASQGIGNWLAWYQQKPGKAPTLLIYAASSLESGVPSRFTGSGSSSGIDFTLTISDLHPEDLATYYCQQAQTFPLTFGGGTRVDLK
notes: human, kappa; also called Dli10

What was measured:
[1] = target: T1, human Sp35 protein (ELISA, Western, KD; …); assay: ELISA
[2] = target: T2, full-length human Sp35 with an …; assay: IP
Protocol: To perform the immunoprecipitation, COS-1 cells expressing Sp35, fused to a hemaglutinin (HA) tag on the N-terminus, were produced by transiently transfecting COS-1 cells with a DNA construct which expresses the full-length Sp35 protein with an HA tag. Cells were harvested 48 hr after transfection and were lysed in 1 ml lysis buffer (50 mM HEPES, pH 7.5, 150 mM NaCl, 1.5 mM MgCl₂, 1 mM EGTA, 1% Triton X-100 and 10% glycerol) for 30 min at 4° C. After centrifugation at 14,000×g for 15 min, the supernatants were incubated with ProteinA/G-Sepharose beads (Santa Cruz) at 4° C. for 1 hr, and then incubated at 4° C. for 1 hr with either the 1A7 or the 2F3 anti-Sp35 murine monoclonal antibodies. The beads were washed 3 times with lysis buffer, boiled in Laemmli sample buffer, subjected to 4-20% SDS-PAGE, and analyzed by Western blotting using an antibody which recognizes the HA tag. As shown on the SDS-PAGE gel, monoclonal antibodies 1A7 and 2F3, immunoprecipitated human and murine Sp35 (FIG. 1). […] Similarly, monoclonal antibodies 1G7, 2B10, 2F3, 3P4C2.2D2, 3P4C8.2G9, Li01, Li03, Li05, Li06, Li07, Li08, Li11, Li12, 7P1D5.1G9 and 3B5.2 immunoprecipitate human or mouse or human and mouse Sp35 (See Table 3B and 3C). Additionally, Li08 immunoprecipitates AP-Sp35 and monoclonal antibodies 1B6.4 and 3E3.1 immunoprecipitate endogenous Sp35 (See Table 3B).

[3] = target: T1, human Sp35 protein (ELISA, Western, KD; …); assay: method not stated; second figure of the same phrase, inconsistent with the 10 nM already written
[4] = target: T3, mouse Sp35 protein (ELISA, Western, KD; …); assay: method not stated
[5] = target: T1, human Sp35 protein (ELISA, Western, KD; …); assay: method not stated
[6] = target: T4, human Sp35 protein expressed on …; assay: FACS
[7] = target: T2, full-length human Sp35 with an …; assay: IP; remark: listed apart in the source
[8] = target: T5, Sp35-Fc fusion protein (human Sp35 …); assay: ELISA
Protocol: (§1) In order to determine which regions of the Sp35 polypeptide were bound by the various hybridoma- and phage display-derived monoclonal antibodies produced in Example 2, an ELISA assay was performed using a panel of truncated Sp35 polypeptides, each fused to the hinge and Fc regions of IgG1 by the methods described in Example 1. […] Ovalbumin and BSA were used as controls. […] The affinity of these latter antibodies for mouse and rat Sp35 was restored to the level seen using human Sp35 when amino acid 419 of the mouse or rat Sp35 is changed from histidine (H) to arginine (R). Arginine is the amino acid at position 419 in human Sp35. […] AP substrate was then developed by 10 mg/ml 4 NPP in 0.1 M Glycine, 1 mM MgCl₂, 1 mM ZnCl₂, pH 10.5, and read at O.D. 405.

[9] = target: T6, Sp35 fragment 34-532 (ELISA); assay: ELISA
Protocol: as §1

Binder | binding result [1] | binding result [2] | further results
B1 | binds | – | –
B2 | binds | binds | –
B3 | – | – | Kd [3]: 1 nM; Kd [4]: 20 µM; Kd [5]: 10 nM
B4 | binds | binds | binding result [6]: binds
B5 | binds | – | binding result [7]: binds
B6 | binds | binds | binding result [8]: binds; binding result [9]: binds
B7 | binds | binds | binding result [8]: binds; binding result [9]: binds
B8 | binds | – | –
